From patent publication US10485844B2, “Methods for treating severe atopic dermatitis by administering an IL-4R inhibitor” (Regeneron Pharmaceuticals, Inc., priority 2016, dated 2019)

Test system: adults with moderate-to-severe atopic dermatitis
Experiment: Phase 3 open-label trial: dupilumab-naïve vs retreated patients (treatment interruption)
Settings: for adverse events/100 patient years: to Wk52; for decrease in peak pruritus NRS score from baseline of parent study / patients who achieved EASI-75 (from baseline of parent study) / patients with Investigator's Global Assessment score of 0 or 1: Wk52
Protocol: This Example presents an interim analysis of an ongoing multicenter, open-label trial (NCT01949311) of dupilumab treatment for up to 3 yrs. Adults with moderate-to-severe atopic dermatitis (AD) were enrolled after participation in prior dupilumab trials. Safety and efficacy at Week [Wk] 52 for dupilumab naïve (previously unexposed) and retreated (>13 Wk gap between parent and open-label study) patients were evaluated.

dupilumab: fully human anti-IL-4R antibody; heavy chain SEQ ID NO: 9, light chain SEQ ID NO: 10
serious AEs/100PY (dupilumab-naïve patients): 11.7 serious AEs/100PY | treatment discontinuations due to AEs (dupilumab-naïve patients): 2.6% | adverse events/100 patient years (dupilumab-naïve patients (n=116)): 432.5 AEs/100PY | deaths (naïve and retreated patients): no deaths | decrease in peak pruritus NRS score from baseline of parent study (naïve patients): 64.9% | patients who achieved EASI-75 (from baseline of parent study) (naïve patients): 73.3% | patients with Investigator's Global Assessment score of 0 or 1 (naïve patients): 49.1% | serious AEs/100PY (retreated patients): 5.4 serious AEs/100PY | treatment discontinuations due to AEs (retreated patients): 2.8% | adverse events/100 patient years (retreated patients (>13 Wk gap; n=290)): 371.0 AEs/100PY | decrease in peak pruritus NRS score from baseline of parent study (retreated patients): 60.6% | patients who achieved EASI-75 (from baseline of parent study) (retreated patients): 80.7% | patients with Investigator's Global Assessment score of 0 or 1 (retreated patients): 50.7%
